Measured values as given in patent US10081665B2, “Peptides and combination of peptides for use in immunotherapy against various tumors” (immatics biotechnologies GmbH, priority 2015, dated 2018).

Molecular target: HLA-A*02:01 (Homo sapiens, UniProt P04439, D140Y/D185E/D98H/E176V/E277Q/G131W/G231S/I119V/I121R/I166T/I218V/L300P/L318F/N151K/N90K/P208A/P217A/Q86G/Q94H/R138H/R169H/T345S)
Assay: MHC binding assay (UV-ligand exchange, beta2m ELISA)
Conditions: binding to HLA-A*02:01, β2m ELISA
Description: Candidate peptides for T cell based therapies according to the present invention were further tested for their MHC binding capacity (affinity). The individual peptide-MHC complexes were produced by UV-ligand exchange, where a UV-sensitive peptide is cleaved upon UV-irradiation, and exchanged with the peptide of interest as analyzed. Only peptide candidates that can effectively bind and stabilize the peptide-receptive MHC molecules prevent dissociation of the MHC complexes. To determine the yield of the exchange reaction, an ELISA was performed based on the detection of the light chain (β2m) of stabilized MHC complexes. The assay was performed as generally described in Rodenko et al. (Rodenko et al., 2006).
96 well MAXISorp plates (NUNC) were coated over night with 2 ug/ml streptavidin in PBS at room temperature, washed 4× and blocked for 1 h at 37° C. in 2% BSA containing blocking buffer. Refolded HLA-A*02:01/MLA-001 monomers served as standards, covering the range of 15-500 ng/ml. Peptide-MHC monomers of the UV-exchange reaction were diluted 100 fold in blocking buffer. Samples were incubated for 1 h at 37° C., washed four times, incubated with 2 ug/ml HRP conjugated anti-82m for 1 h at 37° C., washed again and detected with TMB solution that is stopped with […]. Absorption was measured at 450 nm. Candidate peptides that show a high exchange yield (preferably higher than 50%, most preferred higher than 75%) are generally preferred for a generation and production of antibodies or fragments thereof, and/or T cell receptors or fragments thereof, as they show sufficient avidity to the MHC molecules and prevent dissociation of the MHC complexes.

Peptide exchange (MHC class I binding score, peptide exchange yield)	Substance
+++ (≥50 = +++)	148 (YLILSSHQL; listed as Homo sapiens) [compound 148]
++ (≥20% = ++)	149 (NMADGQLHQV; listed as Homo sapiens) [compound 149]
+++ (≥50 = +++)	150 (VLLDMVHSL; listed as Homo sapiens) [compound 150]
++ (≥20% = ++)	151 (DISKRIQSL; listed as Homo sapiens) [compound 151]
+++ (≥50 = +++)	153 (KLVELEHTL; listed as Homo sapiens) [compound 153]
++ (≥20% = ++)	154 (AIIKEIQTV; listed as Homo sapiens) [compound 154]
++ (≥20% = ++)	155 (TLDSYLKAV; listed as Homo sapiens) [compound 155]
+++ (≥50 = +++)	158 (YLDPLWHQL; listed as Homo sapiens) [compound 158]
+++ (≥50 = +++)	159 (QLGPVPVTI; listed as Homo sapiens) [compound 159]
+++ (≥50 = +++)	160 (TLQEWLTEV; listed as Homo sapiens) [compound 160]
++++ (≥75% = ++++)	161 (NLLDENVCL; listed as Homo sapiens) [compound 161]
+++ (≥50 = +++)	162 (GLLGNLLTSL; listed as Homo sapiens) [compound 162]
++ (≥20% = ++)	163 (GLEERLYTA; listed as Homo sapiens) [compound 163]
+++ (≥50 = +++)	164 (MLIIRVPSV; listed as Homo sapiens) [compound 164]
+++ (≥50 = +++)	165 (SLLDYEVSI; listed as Homo sapiens) [compound 165]
+++ (≥50 = +++)	166 (LLGDSSFFL; listed as Homo sapiens) [compound 166]
+++ (≥50 = +++)	167 (LVVDEGSLVSV; listed as Homo sapiens) [compound 167]
+++ (≥50 = +++)	168 (VIFEGEPMYL; listed as Homo sapiens) [compound 168]
+++ (≥50 = +++)	169 (ALADLSVAV; listed as Homo sapiens) [compound 169]
++ (≥20% = ++)	170 (FIAAVVEKV; listed as Homo sapiens) [compound 170]
++ (≥20% = ++)	171 (LLLLDVPTA; listed as Homo sapiens) [compound 171]

Peptide exchange (MHC class I binding score, peptide exchange yield)	Substance
+++ (≥50 = +++)	173 (RLIDIYKNV; listed as Homo sapiens) [compound 173]
++ (≥20% = ++)	174 (ALYSGDLHAA; listed as Homo sapiens) [compound 174]
+++ (≥50 = +++)	175 (SLLDLVQSL; listed as Homo sapiens) [compound 175]
++ (≥20% = ++)	176 (VQSGLRILL; listed as Homo sapiens) [compound 176]
+++ (≥50 = +++)	177 (ALINVLNAL; listed as Homo sapiens) [compound 177]
++++ (≥75% = ++++)	178 (SLVSWQLLL; listed as Homo sapiens) [compound 178]
+++ (≥50 = +++)	179 (TLGEIIKGV; listed as Homo sapiens) [compound 179]
+++ (≥50 = +++)	180 (RLYEEEIRI; listed as Homo sapiens) [compound 180]
+++ (≥50 = +++)	181 (LLWAPTAQA; listed as Homo sapiens) [compound 181]
+++ (≥50 = +++)	182 (GLQDGFQITV; listed as Homo sapiens) [compound 182]
++ (≥20% = ++)	184 (ALDSTIAHL; listed as Homo sapiens) [compound 184]
++ (≥20% = ++)	185 (TLYQGLPAEV; listed as Homo sapiens) [compound 185]
++ (≥20% = ++)	187 (SILKEDPFL; listed as Homo sapiens) [compound 187]
++ (≥20% = ++)	188 (VLGEEQEGV; listed as Homo sapiens) [compound 188]
+++ (≥50 = +++)	190 (SLSTELFKV; listed as Homo sapiens) [compound 190]
+++ (≥50 = +++)	191 (AAIEIFEKV; listed as Homo sapiens) [compound 191]
++ (≥20% = ++)	192 (TLLPSSGLVTL; listed as Homo sapiens) [compound 192]
+++ (≥50 = +++)	193 (ALFHMNILL; listed as Homo sapiens) [compound 193]
++ (≥20% = ++)	194 (KLLEEVQLL; listed as Homo sapiens) [compound 194]
+++ (≥50 = +++)	195 (VIIQNLPAL; listed as Homo sapiens) [compound 195]
++ (≥20% = ++)	198 (ILTNKVVSV; listed as Homo sapiens) [compound 198]

Peptide exchange (MHC class I binding score, peptide exchange yield)	Substance
++ (≥20% = ++)	199 (SVADLAHVL; listed as Homo sapiens) [compound 199]
+++ (≥50 = +++)	200 (IMPTFDLTKV; listed as Homo sapiens) [compound 200]
+++ (≥50 = +++)	204 (SEWGSPHAAVP; listed as Homo sapiens) [compound 204]
++++ (≥75% = ++++)	206 (GLDAFRIFL; listed as Homo sapiens) [compound 206]
+++ (≥50 = +++)	207 (KLFETVEEL; listed as Homo sapiens) [compound 207]
++ (≥20% = ++)	208 (HLNNDRNPL; listed as Homo sapiens) [compound 208]
+++ (≥50 = +++)	210 (GLAGDNIYL; listed as Homo sapiens) [compound 210]
+++ (≥50 = +++)	211 (LLTTVLINA; listed as Homo sapiens) [compound 211]
++ (≥20% = ++)	212 (MTLSEIHAV; listed as Homo sapiens) [compound 212]
+++ (≥50 = +++)	213 (ILAVDGVLSV; listed as Homo sapiens) [compound 213]
+++ (≥50 = +++)	214 (ALFETLIQL; listed as Homo sapiens) [compound 214]
++ (≥20% = ++)	215 (QIADIVTSV; listed as Homo sapiens) [compound 215]
++ (≥20% = ++)	216 (ALSTVTPRI; listed as Homo sapiens) [compound 216]
+++ (≥50 = +++)	217 (LLWPSSVPA; listed as Homo sapiens) [compound 217]
+++ (≥50 = +++)	218 (SLTGANITV; listed as Homo sapiens) [compound 218]
++ (≥20% = ++)	219 (GVVPTIQKV; listed as Homo sapiens) [compound 219]
+++ (≥50 = +++)	220 (ALSELERVL; listed as Homo sapiens) [compound 220]
++ (≥20% = ++)	221 (IMLNSVEEI; listed as Homo sapiens) [compound 221]
++ (≥20% = ++)	222 (LLTGVFAQL; listed as Homo sapiens) [compound 222]
+++ (≥50 = +++)	223 (ALHPVQFYL; listed as Homo sapiens) [compound 223]
